Laboratory results: patent US20110294738A1, “PTHR1 RECEPTOR COMPOUNDS” (priority 2008, published 2011)
* marks the point of attachment. Palmitoyl = CCCCCCCCCCCCCCCC(=O)*

Molecular target: PTHR1 receptor
Sequence (P25961 whole entry): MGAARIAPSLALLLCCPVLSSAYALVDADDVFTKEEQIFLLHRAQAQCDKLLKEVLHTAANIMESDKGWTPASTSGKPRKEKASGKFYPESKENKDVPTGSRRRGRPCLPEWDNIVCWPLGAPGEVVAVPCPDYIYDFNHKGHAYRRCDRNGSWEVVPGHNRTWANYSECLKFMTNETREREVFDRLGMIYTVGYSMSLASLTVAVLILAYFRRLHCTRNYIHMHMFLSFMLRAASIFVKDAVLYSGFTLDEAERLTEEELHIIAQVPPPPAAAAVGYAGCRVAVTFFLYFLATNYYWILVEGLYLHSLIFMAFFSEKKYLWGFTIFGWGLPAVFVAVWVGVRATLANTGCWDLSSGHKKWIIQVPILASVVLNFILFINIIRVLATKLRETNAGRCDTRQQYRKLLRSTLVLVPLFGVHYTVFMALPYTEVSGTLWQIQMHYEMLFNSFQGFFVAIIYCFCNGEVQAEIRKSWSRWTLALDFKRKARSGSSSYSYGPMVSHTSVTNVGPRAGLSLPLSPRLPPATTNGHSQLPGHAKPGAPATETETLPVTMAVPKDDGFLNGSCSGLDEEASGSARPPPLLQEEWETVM

B1: Compound 43 (peptide)
peptide: Palmitoyl-GSEKKYLWG-NH2
SMILES: CCCCCCCCCCCCCCCC(=O)NCC(=O)N[C@@H](CO)C(=O)N[C@@H](CCC(=O)O)C(=O)N[C@@H](CCCCN)C(=O)N[C@@H](CCCCN)C(=O)N[C@@H](Cc1ccc(O)cc1)C(=O)N[C@@H](CC(C)C)C(=O)N[C@@H](Cc1c[nH]c2ccccc12)C(=O)NCC(N)=O
B1 was tested, and the Fold Shift of EC50 was 1.4 fold and the Inhibition of Maximal Response was 5.7%.

B2: Compound 4 (peptide)
peptide: Palmitoyl-LAYFRRLHSTR-NH2
SMILES: CCCCCCCCCCCCCCCC(=O)N[C@@H](CC(C)C)C(=O)N[C@@H](C)C(=O)N[C@@H](Cc1ccc(O)cc1)C(=O)N[C@@H](Cc1ccccc1)C(=O)N[C@@H](CCCNC(=N)N)C(=O)N[C@@H](CCCNC(=N)N)C(=O)N[C@@H](CC(C)C)C(=O)N[C@@H](Cc1c[nH]cn1)C(=O)N[C@@H](CO)C(=O)N[C@H](C(=O)N[C@@H](CCCNC(=N)N)C(N)=O)[C@@H](C)O
In the case of B2, the Fold Shift of EC50 is reported as 0.9 fold and the Inhibition of Maximal Response is reported as -74.2%.

B3: Compound 75 (peptide)
peptide: Palmitoyl-RVLATKLRETNAGR-NH2
SMILES: CCCCCCCCCCCCCCCC(=O)N[C@@H](CCCNC(=N)N)C(=O)N[C@H](C(=O)N[C@@H](CC(C)C)C(=O)N[C@@H](C)C(=O)N[C@H](C(=O)N[C@@H](CCCCN)C(=O)N[C@@H](CC(C)C)C(=O)N[C@@H](CCCNC(=N)N)C(=O)N[C@@H](CCC(=O)O)C(=O)N[C@H](C(=O)N[C@@H](CC(N)=O)C(=O)N[C@@H](C)C(=O)NCC(=O)N[C@@H](CCCNC(=N)N)C(N)=O)[C@@H](C)O)[C@@H](C)O)C(C)C
With B3 the Fold Shift of EC50 was 1.1 fold and the Inhibition of Maximal Response was 12.6%.

B4: Compound 5 (peptide)
peptide: Palmitoyl-LAYFRRLHSTRNYIH-NH2
SMILES: CCCCCCCCCCCCCCCC(=O)N[C@@H](CC(C)C)C(=O)N[C@@H](C)C(=O)N[C@@H](Cc1ccc(O)cc1)C(=O)N[C@@H](Cc1ccccc1)C(=O)N[C@@H](CCCNC(=N)N)C(=O)N[C@@H](CCCNC(=N)N)C(=O)N[C@@H](CC(C)C)C(=O)N[C@@H](Cc1c[nH]cn1)C(=O)N[C@@H](CO)C(=O)N[C@H](C(=O)N[C@@H](CCCNC(=N)N)C(=O)N[C@@H](CC(N)=O)C(=O)N[C@@H](Cc1ccc(O)cc1)C(=O)N[C@H](C(=O)N[C@@H](Cc1c[nH]cn1)C(N)=O)[C@@H](C)CC)[C@@H](C)O
B4 was tested, and the Fold Shift of EC50 was 1 fold and the Inhibition of Maximal Response was 13%.

B5: Compound 96 (peptide)
peptide: Palmitoyl-EIKKSWSRWTLALDFKRKAR-NH2
SMILES: CCCCCCCCCCCCCCCC(=O)N[C@@H](CCC(=O)O)C(=O)N[C@H](C(=O)N[C@@H](CCCCN)C(=O)N[C@@H](CCCCN)C(=O)N[C@@H](CO)C(=O)N[C@@H](Cc1c[nH]c2ccccc12)C(=O)N[C@@H](CO)C(=O)N[C@@H](CCCNC(=N)N)C(=O)N[C@@H](Cc1c[nH]c2ccccc12)C(=O)N[C@H](C(=O)N[C@@H](CC(C)C)C(=O)N[C@@H](C)C(=O)N[C@@H](CC(C)C)C(=O)N[C@@H](CC(=O)O)C(=O)N[C@@H](Cc1ccccc1)C(=O)N[C@@H](CCCCN)C(=O)N[C@@H](CCCNC(=N)N)C(=O)N[C@@H](CCCCN)C(=O)N[C@@H](C)C(=O)N[C@@H](CCCNC(=N)N)C(N)=O)[C@@H](C)O)[C@@H](C)CC
For B5, the Fold Shift of EC50 was 1.1 fold and the Inhibition of Maximal Response was 7%.

B6: Compound 73 (peptide)
peptide: Palmitoyl-SGRVLATKLRETNA-NH2
SMILES: CCCCCCCCCCCCCCCC(=O)N[C@@H](CO)C(=O)NCC(=O)N[C@@H](CCCNC(=N)N)C(=O)N[C@H](C(=O)N[C@@H](CC(C)C)C(=O)N[C@@H](C)C(=O)N[C@H](C(=O)N[C@@H](CCCCN)C(=O)N[C@@H](CC(C)C)C(=O)N[C@@H](CCCNC(=N)N)C(=O)N[C@@H](CCC(=O)O)C(=O)N[C@H](C(=O)N[C@@H](CC(N)=O)C(=O)N[C@@H](C)C(N)=O)[C@@H](C)O)[C@@H](C)O)C(C)C
Work on B6 yielded a Fold Shift of EC50 of 0.8 fold and an Inhibition of Maximal Response of 32.3%.

B7: Compound 41 (peptide)
peptide: Palmitoyl-GSEKKYLWGFTVF-NH2
SMILES: CCCCCCCCCCCCCCCC(=O)NCC(=O)N[C@@H](CO)C(=O)N[C@@H](CCC(=O)O)C(=O)N[C@@H](CCCCN)C(=O)N[C@@H](CCCCN)C(=O)N[C@@H](Cc1ccc(O)cc1)C(=O)N[C@@H](CC(C)C)C(=O)N[C@@H](Cc1c[nH]c2ccccc12)C(=O)NCC(=O)N[C@@H](Cc1ccccc1)C(=O)N[C@H](C(=O)N[C@H](C(=O)N[C@@H](Cc1ccccc1)C(N)=O)C(C)C)[C@@H](C)O
Work on B7 yielded a Fold Shift of EC50 of 0.9 fold and an Inhibition of Maximal Response of 17.7%.

B8: Compound 98 (peptide)
peptide: Palmitoyl-NGEVQAEIKKSWSRWTLA-NH2
SMILES: CCCCCCCCCCCCCCCC(=O)N[C@@H](CC(N)=O)C(=O)NCC(=O)N[C@@H](CCC(=O)O)C(=O)N[C@H](C(=O)N[C@@H](CCC(N)=O)C(=O)N[C@@H](C)C(=O)N[C@@H](CCC(=O)O)C(=O)N[C@H](C(=O)N[C@@H](CCCCN)C(=O)N[C@@H](CCCCN)C(=O)N[C@@H](CO)C(=O)N[C@@H](Cc1c[nH]c2ccccc12)C(=O)N[C@@H](CO)C(=O)N[C@@H](CCCNC(=N)N)C(=O)N[C@@H](Cc1c[nH]c2ccccc12)C(=O)N[C@H](C(=O)N[C@@H](CC(C)C)C(=O)N[C@@H](C)C(N)=O)[C@@H](C)O)[C@@H](C)CC)C(C)C
With B8 the Fold Shift of EC50 was 1 fold and the Inhibition of Maximal Response was 0.5%.

B9: Compound 72 (peptide)
peptide: Palmitoyl-SGRVLATKLRET-NH2
SMILES: CCCCCCCCCCCCCCCC(=O)N[C@@H](CO)C(=O)NCC(=O)N[C@@H](CCCNC(=N)N)C(=O)N[C@H](C(=O)N[C@@H](CC(C)C)C(=O)N[C@@H](C)C(=O)N[C@H](C(=O)N[C@@H](CCCCN)C(=O)N[C@@H](CC(C)C)C(=O)N[C@@H](CCCNC(=N)N)C(=O)N[C@@H](CCC(=O)O)C(=O)N[C@H](C(N)=O)[C@@H](C)O)[C@@H](C)O)C(C)C
Work on B9 yielded a Fold Shift of EC50 of 0.7 fold and an Inhibition of Maximal Response of 22.3%.

B10: Compound 74 (peptide)
peptide: Palmitoyl-SGRVLATKLRETNAGR-NH2
SMILES: CCCCCCCCCCCCCCCC(=O)N[C@@H](CO)C(=O)NCC(=O)N[C@@H](CCCNC(=N)N)C(=O)N[C@H](C(=O)N[C@@H](CC(C)C)C(=O)N[C@@H](C)C(=O)N[C@H](C(=O)N[C@@H](CCCCN)C(=O)N[C@@H](CC(C)C)C(=O)N[C@@H](CCCNC(=N)N)C(=O)N[C@@H](CCC(=O)O)C(=O)N[C@H](C(=O)N[C@@H](CC(N)=O)C(=O)N[C@@H](C)C(=O)NCC(=O)N[C@@H](CCCNC(=N)N)C(N)=O)[C@@H](C)O)[C@@H](C)O)C(C)C
For B10, the Fold Shift of EC50 was 1.9 fold and the Inhibition of Maximal Response was 22.2%.

B11: Compound 17 (peptide)
peptide: Palmitoyl-SGRRLHSTRNYIHMH-NH2
SMILES: CCCCCCCCCCCCCCCC(=O)N[C@@H](CO)C(=O)NCC(=O)N[C@@H](CCCNC(=N)N)C(=O)N[C@@H](CCCNC(=N)N)C(=O)N[C@@H](CC(C)C)C(=O)N[C@@H](Cc1c[nH]cn1)C(=O)N[C@@H](CO)C(=O)N[C@H](C(=O)N[C@@H](CCCNC(=N)N)C(=O)N[C@@H](CC(N)=O)C(=O)N[C@@H](Cc1ccc(O)cc1)C(=O)N[C@H](C(=O)N[C@@H](Cc1c[nH]cn1)C(=O)N[C@@H](CCSC)C(=O)N[C@@H](Cc1c[nH]cn1)C(N)=O)[C@@H](C)CC)[C@@H](C)O
B11 showed a Fold Shift of EC50 of 2.8 fold and an Inhibition of Maximal Response of 39.4%.

B12: Compound 42 (peptide)
peptide: Palmitoyl-GSEKKYLWGFT-NH2
SMILES: CCCCCCCCCCCCCCCC(=O)NCC(=O)N[C@@H](CO)C(=O)N[C@@H](CCC(=O)O)C(=O)N[C@@H](CCCCN)C(=O)N[C@@H](CCCCN)C(=O)N[C@@H](Cc1ccc(O)cc1)C(=O)N[C@@H](CC(C)C)C(=O)N[C@@H](Cc1c[nH]c2ccccc12)C(=O)NCC(=O)N[C@@H](Cc1ccccc1)C(=O)N[C@H](C(N)=O)[C@@H](C)O
In the case of B12, the Fold Shift of EC50 is reported as 1.3 fold and the Inhibition of Maximal Response is reported as 40.8%.

B13: Compound 16 (peptide)
peptide: Palmitoyl-RRLHSTRNYIHMHL-NH2
SMILES: CCCCCCCCCCCCCCCC(=O)N[C@@H](CCCNC(=N)N)C(=O)N[C@@H](CCCNC(=N)N)C(=O)N[C@@H](CC(C)C)C(=O)N[C@@H](Cc1c[nH]cn1)C(=O)N[C@@H](CO)C(=O)N[C@H](C(=O)N[C@@H](CCCNC(=N)N)C(=O)N[C@@H](CC(N)=O)C(=O)N[C@@H](Cc1ccc(O)cc1)C(=O)N[C@H](C(=O)N[C@@H](Cc1c[nH]cn1)C(=O)N[C@@H](CCSC)C(=O)N[C@@H](Cc1c[nH]cn1)C(=O)N[C@@H](CC(C)C)C(N)=O)[C@@H](C)CC)[C@@H](C)O
Work on B13 yielded a Fold Shift of EC50 of 2.45 fold and an Inhibition of Maximal Response of 0.0965.

B14: Compound 97 (peptide)
peptide: Palmitoyl-KKSWSRWTLALDFKRKAR-NH2
SMILES: CCCCCCCCCCCCCCCC(=O)N[C@@H](CCCCN)C(=O)N[C@@H](CCCCN)C(=O)N[C@@H](CO)C(=O)N[C@@H](Cc1c[nH]c2ccccc12)C(=O)N[C@@H](CO)C(=O)N[C@@H](CCCNC(=N)N)C(=O)N[C@@H](Cc1c[nH]c2ccccc12)C(=O)N[C@H](C(=O)N[C@@H](CC(C)C)C(=O)N[C@@H](C)C(=O)N[C@@H](CC(C)C)C(=O)N[C@@H](CC(=O)O)C(=O)N[C@@H](Cc1ccccc1)C(=O)N[C@@H](CCCCN)C(=O)N[C@@H](CCCNC(=N)N)C(=O)N[C@@H](CCCCN)C(=O)N[C@@H](C)C(=O)N[C@@H](CCCNC(=N)N)C(N)=O)[C@@H](C)O
B14 showed a Fold Shift of EC50 of 4.7 fold and an Inhibition of Maximal Response of 37.2%.

B15: Compound 15 (peptide)
peptide: Palmitoyl-RRLHSTRNYIHM-NH2
SMILES: CCCCCCCCCCCCCCCC(=O)N[C@@H](CCCNC(=N)N)C(=O)N[C@@H](CCCNC(=N)N)C(=O)N[C@@H](CC(C)C)C(=O)N[C@@H](Cc1c[nH]cn1)C(=O)N[C@@H](CO)C(=O)N[C@H](C(=O)N[C@@H](CCCNC(=N)N)C(=O)N[C@@H](CC(N)=O)C(=O)N[C@@H](Cc1ccc(O)cc1)C(=O)N[C@H](C(=O)N[C@@H](Cc1c[nH]cn1)C(=O)N[C@@H](CCSC)C(N)=O)[C@@H](C)CC)[C@@H](C)O
With B15 the Fold Shift of EC50 was 1.7 fold and the Inhibition of Maximal Response was 1.5%.
